Test results reported in patent US20200038523A1 (TECHNISCHE UNIVERSIT T M NCHEN, published 2020).

Target: T1, rhPSMA, extracellular part of human prostate-specific membrane antigen (residues 44-750) with native … (human, UniProt Q04609 44-750)
T1 construct: range 44-750; Secreted from Schneider S2 insect cells, glycosylated; also called wild-type rhPSMA; rhGCPII
Experiment: ELISA: rhPSMA coated on MaxiSorp plate, Anticalin dilution series, detection via Strep-tag II with StrepTactin/AP, absorbance at 405 nm
Excerpt: Binding activities of Anticalins selected from the original nave library (A) or resulting from subsequent affinity maturation of the A3 variant (B) were compared in an ELISA. A 96-well MaxiSorp plate was coated with rhPSMA (or ovalbumin as a negative control, not shown) and purified Anticalin variants were applied in dilution series. Anticalin binding was detected using StrepTactin/AP conjugate, followed by chromogenic reaction. Absorption was plotted against the Anticalin concentration and data were analyzed by curve fitting. Binding curves for the best performing clones A3 and A3A5 are shown as solid lines. (CE) SPR sensograms measured for Anticalins A3, A3A5 and A3A5.1 on a BIAcore 2000 instrument. […]
50 μL of rhPSMA (5 μg/mL in TBS) was directly adsorbed onto the surface of a MaxiSorp 96-well plate overnight at 4° C. […] The plates were washed three times and bound Anticalins were detected with StrepTactin-AP as described further above. The data were analyzed using Prism 5 software (GraphPad) and absorption values (A) were fitted according to the formula ΔA=Aₘₐₓ[Lₜₒₜ]/(KD+[Lₜₒₜ]) with the concentration of the applied lipocalin variant [Lₜₒₜ] and the dissociation constant KD.
Specific binding activities of selected Anticalins toward rhPSMA as well as apparent affinity constants were initially determined by ELISA in 96-well Maxisorp plates coated with the recombinant wild-type PSMA protein. […]

T1 sequence (Q04609 44-750 limits assumed): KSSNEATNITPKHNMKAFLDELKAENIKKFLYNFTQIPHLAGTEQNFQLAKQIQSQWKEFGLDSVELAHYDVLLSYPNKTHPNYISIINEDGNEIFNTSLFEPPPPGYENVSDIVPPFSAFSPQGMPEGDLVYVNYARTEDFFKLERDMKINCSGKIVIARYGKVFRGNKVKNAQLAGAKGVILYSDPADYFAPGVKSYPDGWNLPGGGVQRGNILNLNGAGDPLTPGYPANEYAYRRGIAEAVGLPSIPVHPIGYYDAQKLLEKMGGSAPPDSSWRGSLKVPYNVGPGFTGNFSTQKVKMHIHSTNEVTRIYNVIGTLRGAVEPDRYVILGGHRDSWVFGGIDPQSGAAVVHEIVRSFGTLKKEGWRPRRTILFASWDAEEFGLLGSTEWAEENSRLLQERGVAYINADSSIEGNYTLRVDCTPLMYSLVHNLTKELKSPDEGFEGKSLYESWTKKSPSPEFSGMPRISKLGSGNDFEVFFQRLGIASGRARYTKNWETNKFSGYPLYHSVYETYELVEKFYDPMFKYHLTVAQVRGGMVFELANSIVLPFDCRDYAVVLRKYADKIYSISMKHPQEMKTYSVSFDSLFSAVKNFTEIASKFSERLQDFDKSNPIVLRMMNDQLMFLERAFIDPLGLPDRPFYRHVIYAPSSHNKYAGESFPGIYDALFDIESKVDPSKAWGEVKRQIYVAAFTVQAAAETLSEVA

Row | Binder | EC50 (read off the curve) [nM]
1 | Anticalin candidate H5 (designed binder, not shown: C-terminal Strep-tag II) QDSTSDLIPAPPLSKVPLQQNFQDNQFHGKWYVVGTAGNWPLREDKDPHKMSATIYELKEDKSYNVTNVQFSSKKCLYFIGTFVPGSQPGEFTLGPIKSAPGQTSGLVRVVSTNYNQHAMVFFKQVIQNREAFIITLYGRTKELTSELKENFIRFSKSLGLPENHIVFPVPIDQCIDG | ~6
2 | Anticalin candidate A2 (designed binder, not shown: C-terminal Strep-tag II) QDSTSDLIPAPPLSKVPLQQNFQDNQFHGKWYVVGRAGNKPLREDKDPLKMWATIYELKEDKSYNVTIVWFDFKKCWYRISTFVPGSQPGEFTLGRIKSAPGVTSGLVRVVSTNYNQHAMVFFKYVFQNREWFHITLYGRTKELTSELKENFIRFSKSLGLPENHIVFPVPIDQCIDG | ~10
